Reference: patent US20260069728A1, “MULTI-TARGETING COMPOUND AND USE THEREOF” (Chengdu Shetai Medical Technology Co., Ltd., priority 2023, published 2026)
*1 amine or outer side, *2 acyl side, *3 side chain or, on linkers, in order; H or OH if unused. Where a SMILES comes first, the peptide text is derived from it. Bridges are numbered along the chain shown (N, C = ends). [ ]: non-standard residue; d: D form. The star is where a group is joined. X1 = N#C[C@@H]1CC(F)(F)CN1C(=O)CNC(=O)c1ccnc2ccc(OCCCN3CCN(*)CC3)cc12; DOTA = O=C(O)CN1CCN(CC(=O)O)CCN(CC(=O)*)CCN(CC(=O)O)CC1; 2Nal = N[C@@H](Cc1ccc2ccccc2c1)C(=O)O; Cit = NC(=O)NCCC[C@H](N)C(=O)O; Suc = O=C(CCC(=O)[*:2])[*:1]; AEEA = NCCOCCOCC(=O)O

What was measured:
[1] = Competitive experiment of radioligand against endogenous free amino acids (histidine, cysteine); type: physicochemical; details: 37° C., 2 hours
Description: (§1) To an EP tube containing 150 μL of PBS buffer, 150 μL of H2O, and 50 μL of ^68Ga-SDYD01 was added 50 μL of cysteine hydrochloride solution (10 mM) or histidine solution (10 mM). The mixture was vortexed and incubated at 37° C. for 2 hours, after which samples were taken for radio-HPLC analysis.
This study utilized different concentrations of histidine and cysteine solutions to investigate whether histidine (or cysteine) competes with ^68Ga-SDYD01 for metal chelation.
To an EP tube containing 150 μL of PBS buffer, 150 μL of H2O, and 50 μL of ^68Ga-SDYD02 was added 50 μL of cysteine hydrochloride solution (10 mM) or histidine solution (10 mM). The mixture was vortexed and incubated at 37° C. for 2 hours, after which samples were taken for radio-HPLC analysis.
This study utilized different concentrations of histidine and cysteine solutions to investigate whether histidine (or cysteine) competes with ^68Ga-SDYD02 for metal chelation.
as §1, with “^68Ga-SDYD05” for “^68Ga-SDYD01”, “analysis. This study utilized different concentrations of histidine and cysteine solutions to investigate whether histidine (or cysteine) competes with ^68Ga-SDYD05 for metal chelation.” for “analysis.”
as §1, with “^68Ga-SDYD06” for “^68Ga-SDYD01”, “analysis. This study utilized different concentrations of histidine and cysteine solutions to investigate whether histidine (or cysteine) competes with ^68Ga-SDYD06 for metal chelation.” for “analysis.”

[2] = tested on: SUM149PT human breast cancer cell line; experiment: Cell uptake and inhibition assay, SUM149PT; type: cell-based
Description: The cell lines involved in the cell experiments in the test examples include: SUM149PT human breast cancer cell line, HUTU-80 human duodenal adenocarcinoma cell line, and U-118 MG human brain astrocytoma/glioblastoma cell line.
SUM149PT: Complete medium was formulated using DMEM high-glucose medium, 10% FBS, and a penicillin-streptomycin solution. The cells were cultured in a constant temperature incubator at 37° C. with 5% CO2. The culture medium was regularly replaced, and the cells were passaged. The culture medium was generally changed every 2 to 3 days. The growth of the tumor cells was observed daily under a microscope, including monitoring cell growth status, checking for adherence, examining cell morphology for any abnormalities, checking for contamination, and observing medium color for any abnormalities. Cells were passaged when they reached 80-90% confluence.
When cell confluence in the culture flask reached 80%, the cells were digested and centrifuged, and the supernatant was removed. An appropriate amount of medium was added to dilute so that each well contained 500 μL of medium for plating. After thorough mixing by pipetting, the cell suspension was seeded into a 24-well plate at a density of 5×10^5 cells per well. The plate was then placed into the incubator for continued growth. The cells were ready for cellular experiments when they reached 80% confluence.
(1) The cell uptake assay established four incubation time points: 15, 30, 60, and 120 minutes, respectively. For each time point, four groups were set up: non-inhibition group, a first single inhibition group (FAP single inhibition), a second single inhibition group (CXCR4/GRPR/αvβ3 single inhibition), and a dual inhibition group (FAP inhibitor+CXCR4/GRPR/αvβ3 inhibitor). Each group at each time point was set up with 3 triplicate wells.
(2) Cells were plated into a 24-well plate according to the cell plating procedure described above.
(3) The original culture medium was removed from the 24-well plate. Then, 400 μL of 100 mg/mL skimmed milk solution was added to each well for blocking for one hour. After removing the skimmed milk solution, each of the wells was washed three times by adding 400 μL of PBS solution. Subsequently, 146 μL of FBS-free medium was added to each well. Next, the non-inhibition group received 4 μL of cold PBS per well, while the first single inhibition group, the second single inhibition group, and the dual inhibition group received the following additions per well according to Table 3: 2 μL of non-radiolabeled first single inhibitor solution and 2 μL of cold PBS: 2 μL of non-radiolabeled second single inhibitor solution and 2 μL of cold PBS; 2 μL of non-radiolabeled first single inhibitor solution (10 mM) and 2 μL of non-radiolabeled second single inhibitor solution (10 mM). The plate was incubated at room temperature for one hour.
(4) The ^68Ga- and ^177Lu-labeled radioactive ligands were formulated by adding FBS-free medium to achieve a radioligand system concentration of 20 nM. Then, 50 μL of this radioligand system was added to each well. Each group was incubated according to the designated time points: 15, 30, 60, and 120 minutes.
(5) After the incubation was complete, the supernatant was removed, and the wells were washed three times with 400 μL of PBS solution. Then, 200 μL of 1 M NaOH solution was added to each well for cell lysis. […] Each well was then washed once with 400 μL of PBS solution, and this wash solution was also added to the corresponding radioimmunoassay tubes.
(6) The radioactivity in the cells was measured using a γ counter. A bar graph was plotted using GraphPad Prism software. The inhibition rate for each inhibition group was calculated as follows: Inhibition Rate (%)=(1−[Radioactive Count of the Inhibition Group]/[Radioactive Count of the Non-inhibition Group])×100%. […]

SMILES: N#C[C@@H]1CC(F)(F)CN1C(=O)CNC(=O)c1ccnc2ccc(OCCCN3CCN(C(=O)CCC(=O)N[C@@H](CCCCNC(=O)CN4CCN(CC(=O)O)CCN(CC(=O)O)CCN(CC(=O)O)CC4)C(=O)NCCOCCOCC(=O)NCCOCCOCC(=O)N[C@@H](CCCNC(=N)N)C(=O)N[C@@H](CCCNC(=N)N)C(=O)N[C@@H](Cc4ccc5ccccc5c4)C(=O)N[C@H]4CSSC[C@@H](C(=O)N[C@@H](CCCNC(=N)N)C(N)=O)NC(=O)[C@H](CCCNC(N)=O)NC(=O)[C@H](CCCNC(=N)N)NC(=O)[C@H](Cc5ccc(O)cc5)NC(=O)[C@@H]5CCCN5C(=O)[C@H](CCCCN)NC(=O)[C@H](CCCCN)NC(=O)[C@H](CCCNC(N)=O)NC(=O)[C@H](Cc5ccc(O)cc5)NC4=O)CC3)cc12 [^68Ga-SDYD01, metal not drawn] ({X1-Suc}-K(DOTA)[AEEA][AEEA]RR[2Nal]CY[Cit]KKPYR[Cit]CR-NH2; disulfide 7-16)
- competitive chelation in the presence of histidine and cysteine (in words) [1]: did not undergo competitive chelation
- radiochemical purity after incubation with cysteine ([1]; cysteine hydrochloride solution (10 mM)): 93%
- radiochemical purity after incubation with histidine ([1]; histidine solution (10 mM)): 93%
- cell uptake, comparison of non-inhibition, FAP single, CXCR4 single and dual inhibition groups (in words) ([2]; FAPI-04 and T140 as inhibitors): dual inhibition group exhibited the lowest uptake
- cell uptake over incubation time (in words) ([2]; non-inhibition group, 15-120 minutes): slowly increased and reached a plateau from 30 to 120 minutes
